Assay results: the supplement of paper PMC11246515
± gives the standard deviation of the averaged measurements.

Test: total protein half-life in vivo (active degradation + dilution); higher = more stable protein
[1] = E. coli NCM3722 delta-clpP delta-lon delta-hslV, growth: N-lim chemostat, doubling time 6 h
[2] = E. coli NCM3722 delta-clpP, growth: N-lim chemostat, doubling time 6 h
[3] = E. coli NCM3722 delta-hslV, growth: N-lim chemostat, doubling time 6 h
[4] = E. coli NCM3722 delta-lon, growth: N-lim chemostat, doubling time 6 h
[5] = E. coli NCM3722 delta-smpB, growth: N-lim chemostat, doubling time 6 h
[6] = wild type E. coli NCM3722, growth: C-lim chemostat, doubling time 3 h
[7] = wild type E. coli NCM3722, growth: C-lim chemostat, doubling time 6 h
[8] = wild type E. coli NCM3722, growth: C-lim chemostat, doubling time 12 h
[9] = wild type E. coli NCM3722, growth: N-lim chemostat, doubling time 6 h
[10] = wild type E. coli NCM3722, growth: N-lim chemostat, doubling time 12 h
[11] = wild type E. coli NCM3722, growth: P-lim chemostat, doubling time 6 h
[12] = wild type E. coli NCM3722, growth: P-lim chemostat, doubling time 12 h

| Sequence | total protein half-life in vivo [1] | total protein half-life in vivo [2] | total protein half-life in vivo [3] | total protein half-life in vivo [4] | total protein half-life in vivo [5] | total protein half-life in vivo [6] | total protein half-life in vivo [7] | total protein half-life in vivo [8] | total protein half-life in vivo [9] | total protein half-life in vivo [10] | total protein half-life in vivo [11] | total protein half-life in vivo [12] |
| --- | --- | --- | --- | --- | --- | --- | --- | --- | --- | --- | --- | --- |
| MNYQNDDLRIKEIKELLPPVALLEKFPATENAANTVAHARKAIHKILKGNDDRLLVVIGPCSIHDPVAAKEYATRLLALREELKDELEIVMRVYFEKPRTTVGWKGLINDPHMDNSFQINDGLRIARKLLLDINDSGLPAAGEFLDMITPQYLADLMSWGAIGARTTESQVHRELASGLSCPVGFKNGTDGTIKVAIDAINAAGAPHCFLSVTKWGHSAIVNTSGNGDCHIILRGGKEPNYSAKHVAEVKEGLNKAGLPAQVMIDFSHANSSKQFKKQMDVCADVCQQIAGGEKAIIGVMVESHLVEGNQSLESGEPLAYGKSITDACIGWEDTDALLRQLANAVKARRG [P0AB91] | 3.65 ± 0.43 h | 2.92 ± 0.049 h | 2.76 ± 0.068 h | 3.62 ± 0.64 h | 3.01 ± 0.16 h | 3.18 ± 0.28 h | 5.81 ± 0.16 h | 10.3 ± 0.25 h | 3.02 ± 0.048 h | 3.98 ± 0.2 h | 5.41 ± 0.039 h | 10.3 ± 0.3 h |
| MYYPFVRKALFQLDPERAHEFTFQQLRRITGTPFEALVRQKVPAKPVNCMGLTFKNPLGLAAGLDKDGECIDALGAMGFGSIEIGTVTPRPQPGNDKPRLFRLVDAEGLINRMGFNNLGVDNLVENVKKAHYDGVLGINIGKNKDTPVEQGKDDYLICMEKIYAYAGYIAINISSPNTPGLRTLQYGEALDDLLTAIKNKQNDLQAMHHKYVPIAVKIAPDLSEEELIQVADSLVRHNIDGVIATNTTLDRSLVQGMKNCDQTGGLSGRPLQLKSTEIIRRLSLELNGRLPIIGVGGIDSVIAAREKIAAGASLVQIYSGFIFKGPPLIKEIVTHI [P0A7E1] | 6.89 ± 0.98 h | 6.3 ± 1.1 h | 6.7 ± 0.85 h | 6.48 ± 0.29 h | 6.46 ± 0.65 h | 3.04 ± 0.24 h | 5.72 ± 0.16 h | 13.1 ± 0.45 h | 6.26 ± 0.34 h | 12.5 ± 0.72 h | 6.03 ± 0.28 h | 14.2 ± 1.6 h |
| MKISRLGEAPDYRFSLANERTFLAWIRTALGFLAAGVGLDQLAPDFATPVIRELLALLLCLFSGGLAMYGYLRWLRNEKAMRLKEDLPYTNSLLIISLILMVVAVIVMGLVLYAG [P0ADM0] |  |  |  |  |  |  | 5.742 ± 0.053 h | > 16 h | 5.98 h |  | 5.91 h | 5 h |
| MSELTDLLLQGPRSAPELRQRLAISQATFSRLVAREDRVIRFGKARATRYALLRPYRGIERIPVWRVDDTGKAHKFADIRLCWPQGSCLVTGADGDEQWFDGLPWYLTDLRPQGFLGRAWGRKLAAQLNLTDDIRLWQEEDVLYALTVFNGEYTGGWLVGEGNYQRWITAQHPAEIPLDQKLTHYEQLASDALAGEIVGSSAGGEQPKFTYYAQTPSGNKHVLVKFTVPQQTAVSQRWGDLLIAESIAAQILRDGGIHAIESTVLVTSNRQVFLEAERFDCKGNDGRLPIVSLEAVQSEFISSPGSWPQAMRRLCEQQLVTHQSVAQTEVIWAFGRLIANSDMHAGNLSFYLSEPPFALTPVYDMLPMVYAPNSAGMLRDAAIEVKFDLNVSKSAWLTAIPLAQQFWQTVARDPRISEAFRHIAQEMPEKIRQIEEKVARMGG |  | 5.39 ± 0.31 h |  | 5.71 ± 0.22 h | 4.46 ± 0.29 h | 2.95 ± 0.45 h | 5.9 ± 1.3 h | 10.9 ± 0.43 h | 4.54 ± 0.54 h | 9.16 ± 2.6 h | 2.5 h | 6.85 ± 3.4 h |
| MLKFIQNNREITALLAVVLLFVLPGFLDRQYLSVQTLTMVYSSAQILILLAMGATLVMLTRNIDVSVGSITGMCAVLLGMLLNAGYSLPVACVATLLLGLLAGFFNGVLVAWLKIPAIVATLGTLGLYRGIMLLWTGGKWIEGLPAELKQLSAPLLLGVSAIGWLTIILVAFMAWLLAKTAFGRSFYATGDNLQGARQLGVRTEAIRIVAFSLNGCMAALAGIVFASQIGFIPNQTGTGLEMKAIAACVLGGISLLGGSGAIIGAVLGAWFLTQIDSVLVLLRIPAWWNDFIAGLVLLAVLVFDGRLRCALERNLRRQKYARFMTPPPSVKPASSGKKREAA |  |  |  |  |  | 3.42 h | 5.06 ± 1.6 h | 7.51 ± 1.3 h |  |  |  |  |
| MMKKPVVIGLAVVVLAAVVAGGYWWYQSRQDNGLTLYGNVDIRTVNLSFRVGGRVESLAVDEGDAIKAGQVLGELDHKPYEIALMQAKAGVSVAQAQYDLMLAGYRNEEIAQAAAAVKQAQAAYDYAQNFYNRQQGLWKSRTISANDLENARSSRDQAQATLKSAQDKLRQYRSGNREQDIAQAKASLEQAQAQLAQAELNLQDSTLIAPSDGTLLTRAVEPGTVLNEGGTVFTVSLTRPVWVRAYVDERNLDQAQPGRKVLLYTDGRPDKPYHGQIGFVSPTAEFTPKTVETPDLRTDLVYRLRIVVTDADDALRQGMPVTVQFGDEAGHE | 6.76 ± 0.87 h |  | 6.75 ± 0.14 h | 6.47 ± 0.38 h | 6.26 ± 0.13 h | 3.39 ± 0.38 h |  | 11.2 ± 1.9 h | 6.2 ± 0.46 h | 13.54 ± 0.12 h | 6.02 ± 0.17 h | 14.2 ± 0.91 h |
| MSTEKEKMIAGELYRSADETLSRDRLRARQLIHRYNHSLAEEHTLRQQILADLFGQVTEAYIEPTFRCDYGYNIFLGNNFFANFDCVMLDVCPIRIGDNCMLAPGVHIYTATHPIDPVARNSGAELGKPVTIGNNVWIGGRAVINPGVTIGDNVVVASGAVVTKDVPDNVVVGGNPARIIKKL | 3.81 h | > 8 h | 1.77 h |  |  | 3.24 ± 0.56 h | 3.82 ± 0.11 h | 5.15 ± 2.1 h |  |  | > 8 h | 7.59 ± 1.4 h |
| MKIELTVNGLKIQAQYQNEEIENVHKPLLHMLAALQTVNPQRRTVVFLCAPPGTGKSTLTTFWEYLAQQDPELPAIQTLPMDGFHHYNSWLDAHQLRPFKGAPETFDVAKLTENLRQVVEGDCTWPQYDRQKHDPVEDALHVTAPLVIVEGNWLLLDDEKWLELASFCDFSIFIHAPAQILRERLISRKIAGGLTRQVAEAFYARTDGPNVERVLMNSRQANLIVEMTEEGRYHFTS | 5.96 h | 1.31 h |  |  |  |  |  |  |  |  |  |  |
| MKIISKMLVGALALAVTNVYAAELMTKAEFEKVESQYEKIGDISTSNEMSTADAKEDLIKKADEKGADVLVLTSGQTDNKIHGTANIYKKK | 5.25 ± 1.4 h | 5.09 ± 0.88 h | 5.83 ± 1 h | 5.4 ± 0.39 h | 4.12 ± 0.067 h | 2.86 ± 0.34 h | 4.78 ± 0.76 h | 5.78 ± 0.63 h | 5.28 ± 0.32 h | 9.55 ± 3.1 h | 4.64 ± 1.1 h | 9.62 ± 0.2 h |
